Here are results for four substances from patent US20220402979A1.

One experiment concerns the target Human Tau2N4R. The experiment in a line: SPR; literature table, Jadhav et al. 2019; AFFINITY 'nd.'.
Experiment [1] concerns the target recombinant human mis-disordered tau protein (tau151-391/4R) (human) (UniProt P10636). The experiment in a line: reference line in the plot 'Affinity against pathological tau', axis KD (nM); SPR (Example 10).

Human Tau2N4R, sequence (single chain, as listed by the source limits assumed): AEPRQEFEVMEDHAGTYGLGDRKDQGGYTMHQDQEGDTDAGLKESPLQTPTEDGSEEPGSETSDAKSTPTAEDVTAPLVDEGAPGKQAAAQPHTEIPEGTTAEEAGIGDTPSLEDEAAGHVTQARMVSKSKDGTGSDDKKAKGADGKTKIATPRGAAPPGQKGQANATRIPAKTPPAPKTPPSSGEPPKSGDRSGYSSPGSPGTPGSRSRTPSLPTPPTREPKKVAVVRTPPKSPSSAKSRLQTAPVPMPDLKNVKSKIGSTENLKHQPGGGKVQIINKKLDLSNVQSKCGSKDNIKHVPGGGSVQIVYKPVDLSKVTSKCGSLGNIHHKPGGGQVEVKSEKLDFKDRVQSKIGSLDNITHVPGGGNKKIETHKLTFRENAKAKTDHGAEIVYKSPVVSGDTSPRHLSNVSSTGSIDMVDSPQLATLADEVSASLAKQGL
recombinant human mis-disordered tau protein (tau151-391/4R) (human), sequence (P10636 468-708): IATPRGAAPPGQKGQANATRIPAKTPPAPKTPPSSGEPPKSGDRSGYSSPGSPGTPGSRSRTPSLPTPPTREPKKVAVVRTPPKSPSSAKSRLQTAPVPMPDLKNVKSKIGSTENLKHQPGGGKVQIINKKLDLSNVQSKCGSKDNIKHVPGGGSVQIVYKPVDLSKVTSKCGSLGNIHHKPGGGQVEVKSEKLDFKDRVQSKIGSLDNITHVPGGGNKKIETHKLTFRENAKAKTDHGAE

Consider HJ8.5 (antibody), for which, in the experiment with Human Tau2N4R, the AVIDITY stood at 0.4 pM.

The substance HJ9.4 (antibody) gave an AVIDITY with Human Tau2N4R of 7000 pM.

Turning to AADvac2, the Kd (as a rule, the free concentration of one partner at which half of the binding sites on the other are occupied at equilibrium, for simple one-to-one binding) in experiment [1] amounted to 0.4 nM.

In turn, HJ9.3 (antibody) came in with an AVIDITY with Human Tau2N4R of 100 pM.
